Results reported in the nanobody polyreactivity screen of Harvey et al. (2022).

Assay: yeast display, Sf9 membrane polyspecificity reagent, FACS + sequencing; frameworks hold sequencing errors
In short: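 A synthetic nanobody library was expressed on Saccharomyces cerevisiae BJ5465 by galactose induction for 36–48 hours. The library was stained for 1 hour at 4 °C with 10% biotinylated, detergent-solubilized Sf9 membrane reagent and enriched with streptavidin microbeads before FACS. Low and high (top ~1%) gates were set on anti-HA fluorescence for expression and streptavidin fluorescence for reagent binding, and each polyreactivity label reflects the gate of origin.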

Sequence	polyreactivity (PSR sort gate)
QVQLVESGGGLVQAGGSLRLSCAASGTIFTVYALGWYRQPPGKERELVAGISSGAGTTYADSVKGRFTISRDNAKNTVYLQMNSMKPEDTAVYYCAAYTWDTDHYWYGYVPYDYWGQGTQVTVSS	low polyreactivity
QVQLVESGGGLVQAGGSLRLSCAASGTIFWIYAMGWYRQAPGKERELVATITRRGGSTYYADSVKGRFTISRDNATNTVYLQMNSLKPEDTAVYFCATEPGYTYLTSYKYDYWGQGTQVTVSS	low polyreactivity
QVQLVESGGGLVQAGGSLRLSCAASGTIFYGNAMGWYRQAPGKEREYVAAITYSGGSTYYADSVKGRFSISRDNAKNTVYLQMNSLKPEDTAVYYCAKAYYPKGRYGFDYWGQGTQVTVSS	high polyreactivity
QVQLVESGGGLVQAGGSLRLSCAASGTITSYAMGWYRQAPGKERELVASIRYRGGSTYYADSVKGRFTISRDNAKNTVYLQMNSLKPEDTAVYYCAADNFAPEFYYWGQGTQVTVSS	low polyreactivity
QVQLVESGGGLVQAGGSLRLSCAASGTLATYAMGWYRQAPGKERELVAAIRYSDGRTYYADSVKGRFTISRDNAKNTFYLQMNSLKPEDTAVYYCAASFRGRGKKLDYWGQGTQVTVSS	low polyreactivity
QVQLVESGGGLVQAGGSLRLSCAASGTNQGVNAMGWYRQAPGKEREFDAAITGRGGNTYYADSVKGRYTISRDNAKNTVYLQLNSLKPDDTAVYYCAARVKDTRYQSMLDYFYWGQGTEVTVSS	high polyreactivity
QVQLVESGGGLVQAGGSLRLSCAASGTNVMGWYRQAPGKERELVAAISGSGGSTYYADSVKGRFTISRDNAKNSVYFQMNSLKPEDSAVYYCAADSIQYTARPYDYWGQGTQVTVSS	low polyreactivity
QVQLVESGGGLVQAGGSLRLSCAASGTTFDSNGRGWYREAPGKERELVAAIRSGDSTYYADSVKGRCTISRDNAKNTVYLQMISLKPEDTAVYYCNKDEATFLSKDDYWGQGTQVTVSS	low polyreactivity
QVQLVESGGGLVQAGGSLRLSCAASGTTFDYYAMGWYRQAPGKERELVAVISSSGGSTYYADSVKGRFTISRDNAKNTVYLQMNSLKPEDTAVYYCAALYRNYGSSYAYYYWGQGTQVTVSS	low polyreactivity
QVQLVESGGGLVQAGGSLRLSCAASGTTFSRYAMGWYRQAPGKEREFVAAISRRAGGTYYADSVKGRFTISRDNAKNTVYLQMNSLKPEDTAVYYCAKVLPRDYIGRATYDYWGQGTQVTVSS	high polyreactivity
QVQLVESGGGLVQAGGSLRLSCAASGTTFSVNAMGWYRQAPGKERELVAAIDYSGGSTYYADSVKGRFTISRDNAKNTVYLQMNSLKPEDTAVYYCNADAYGTPEFTSYAVRYDYWGQGTQVTVSS	low polyreactivity
QVQLVESGGGLVQAGGSLRLSCAASGTTFSYNAIVWYRQAPGKERELVAAISGSGGTTYYADSVKGRFTISRDNAKNTVYLEMNSLKPEDTAVYYCDARPFRSWRYDYWGQGTQVTVSS	low polyreactivity
QVQLVESGGGLVQAGGSLRLSCAASGTTFTFNAMGWSRQAPGKERELVAAMSRSGGRTYYADSVKGRFTISRDNAKNTVYLQMNSLNPEDTAVYYCANDFVEQGRYNVGYWGQGTQVTGSS	high polyreactivity
QVQLVESGGGLVQAGGSLRLSCAASGTTFVHYAMGWYRQAPGKERELVAAISSSGDSTYYADSVKGRFTISRDKAKNTVYLQMNSLKPEDTAVYYCAVRSRTPRAYYYWGQGTQVTVSS	low polyreactivity
QVQLVESGGGLVQAGGSLRLSCAASGTTFVWYAMGWYRQAPGKERELVAAISLSGGSTYYADSVKGRFTISRDNAKKTVYLQMNSLKPEDTAVYYCAAETYAYLFHTYDYWGQGSQVTVSS	low polyreactivity
QVQLVESGGGLVQAGGSLRLSCAASGTTFYNYAMGWYRQAPGKERELVAAITSSGGSTYYADSVKGRFTISRDNAKNTVYLQMNSLKPEDTAVYYCNAVDGYGLVHSISTYEMDYWGQGTQVTVSS	low polyreactivity
